{"source": "paper PMC8836101", "about": "(2022)", "binders": {"B1": {"name": "tandem Tudor domains of UHRF1 (domain or fragment)", "chain": "WDETELGLYKVNEYVDARDTNMGAWFEAQVVRVTRKAPSRDEPCSSTSRPALEEDVIYHVKYDDYPENGVVQMNSRDVRARARTIIKWQDLEVGQVVMLNYNPDNPKERGFWYDAEISRKRETRTARELYANVVLGDDSLNDCRIIFVDEVFKIERPGE"}, "B2": {"name": "bromo-adjacent homology domain of ASH1L (domain or fragment)", "chain": "NFHSFNVEKQQLCKCGFEKCRGIIGGKSQRVNGLTSSKNSQPMATHKKSGRSKEKRKSKHKLKKRRGHLSEEPSENINTPTRLTPQLQMKPMSNRERNFVLKHHVFLVRNWEKIRQKQEEVKHTSDNIHSASLYTRWNGICRDDGNIKSDVFMTQFSALQTARSVRTRRLAAAEENIEVARAARLAQIFKEICDGIISYKDSSRQALAAPLLNLPPKKKNADYYEKISDPLDLITIEKQILTGYYKTVEAFDADMLKVFRNAEKYYGRKSPVGRDVCRLRKAYYNARHEASAQIDEIVGETASEADSSETSVSEKENGHEKDDDVIRCICGLYKDEGLMIQCDKCMVWQHCDCMGVNSDVEHYLCEQCDPRPVDREVPMIPRPHYAQPGCVYFICLLRDDLLLRQGDCVYLMRDSRRTPDGHPVRQSYRLLSHINRDKLDIFRIEKLWKNEKEERFAFGHHYFRPHETHHSPSRRFYHNELFRVPLYEIIPLEAVVGTCCVLDLYTYCKGRPKGVKEQDVYICDYRLDKSAHLFYKIH"}}, "key": {"H3K18me2": {"biological_target": "H3K18me2 (Homo sapiens, dimethyl-Lys18 (mature numbering); biotin, attachment site not given; limits assumed from the H3 1-21 control)", "assay": "FACS; yeast surface display titration"}, "H3 22-41": {"biological_target": "H3 22-41 (Homo sapiens, unmodified; biotin, attachment site not given)", "assay": "FACS; yeast surface display titration"}}}
{"binder": "B1", "values": [{"measurement": "Kd", "setting": "H3K18me2", "result": 5, "unit": "µM"}]}
{"binder": "B2", "values": [{"measurement": "Kd", "setting": "H3 22-41", "result": 6.5, "unit": "µM"}]}
